From IntAct's records for PubMed 19361433

B1: Probable ATP-dependent transporter SufC (Escherichia coli (strain K12)), P77499 (parent)
chain: MLSIKDLHVSVEDKAILRGLSLDVHPGEVHAIMGPNGSGKSTLSATLAGREDYEVTGGTVEFKGKDLLALSPEDRAGEGIFMAFQYPVEIPGVSNQFFLQTALNAVRSYRGQETLDRFDFQDLMEEKIALLKMPEDLLTRSVNVGFSGGEKKRNDILQMAVLEPELCILDESDSGLDIDALKVVADGVNSLRDGKRSFIIVTHYQRILDYIKPDYVHVLYQGRIVKSGDFTLVKQLEEQGYGWLTEQQ
partner: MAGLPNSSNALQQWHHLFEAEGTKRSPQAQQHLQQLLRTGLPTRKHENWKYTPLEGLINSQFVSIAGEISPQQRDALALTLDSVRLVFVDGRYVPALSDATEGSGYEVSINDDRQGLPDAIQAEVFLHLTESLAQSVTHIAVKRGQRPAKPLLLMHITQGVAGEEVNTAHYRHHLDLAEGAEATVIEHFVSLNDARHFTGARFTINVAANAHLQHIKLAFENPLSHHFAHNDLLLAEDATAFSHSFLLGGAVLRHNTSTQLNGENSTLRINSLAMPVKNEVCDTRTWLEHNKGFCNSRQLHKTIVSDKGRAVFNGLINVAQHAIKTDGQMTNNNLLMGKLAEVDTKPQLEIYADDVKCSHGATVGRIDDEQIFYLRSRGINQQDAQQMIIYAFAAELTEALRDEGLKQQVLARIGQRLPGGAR

Variants of: B1
Conditions: with sufd_ecoli sufD

Row | effect of a mutation on the interaction | Variant
1 | increasing interaction | MLSIKDLHVSVEDKAILRGLSLDVHPGEVHAIMGPNGSGKSTLSATLAGREDYEVTGGTVEFKGKDLLALSPEDRAGEGIFMAFQCPVEIPGVSNQFFLQTALNAVRSYRGQETLDRFDFQDLMEEKIALLKMPEDLLTRSVNVGFSGGEKKRNDILQMAVLEPELCILDESDSGLDIDALKVVADGVNSLRDGKRSFIIVTHYQRILDYIKPDYVHVLYQGRIVKSGDFTLVKQLEEQGYGWLTEQQ [Y86C]
